For 23 sequences, self-aminoacylation results are on record in the supplement of paper PMC9233669.

One series deals with biotinyl-Phe-oxazolone. The experiment in a line: self-aminoacylation, catalytic enhancement (BFO) (fold over background); higher = more active; k-Seq, kA / k0A0; sequences stand for … in GGGAAUGGAUCCACAUCUACGAAUUC…UUCACUGCAGACUUGACGAAGCUG
In a few lines: (§1)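 Catalytic enhancement equals the median kA over the uncatalyzed rate, the latter read from the low-activity peak of a bimodal Gaussian fit. Values of kA came from fitting each sequence's fraction reacted to a pseudo-first-order model, with 1000 bootstraps. Reacted RNA was captured with streptavidin and quantified by triplicate qPCR and Illumina sequencing after 90 minutes at room temperature with 2–1250 μM biotinyl-aminoacyl-oxazolone and 0.43 μM mutagenized RNA pools bearing a 21-nt variable region.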

In the next series the test system is biotinyl-Ile-oxazolone. As to the kind of experiment: self-aminoacylation, catalytic enhancement (BIO) (fold over background); higher = more active; k-Seq, kA / k0A0; sequences stand for … in GGGAAUGGAUCCACAUCUACGAAUUC…UUCACUGCAGACUUGACGAAGCUG
In a few lines:
as §1

In another series the test system is biotinyl-Met-oxazolone. The experiment in a line: self-aminoacylation, catalytic enhancement (BMO) (fold over background); higher = more active; k-Seq, kA / k0A0; sequences stand for … in GGGAAUGGAUCCACAUCUACGAAUUC…UUCACUGCAGACUUGACGAAGCUG
The essentials:
as §1

The subject of the next series is biotinyl-Val-oxazolone. As to the kind of experiment: self-aminoacylation, catalytic enhancement (BVO) (fold over background); higher = more active; k-Seq, kA / k0A0; sequences stand for … in GGGAAUGGAUCCACAUCUACGAAUUC…UUCACUGCAGACUUGACGAAGCUG
The essentials:
as §1

For a further series, the system named is biotinyl-Leu-oxazolone. The experiment in a line: self-aminoacylation, catalytic enhancement (BLO) (fold over background); higher = more active; k-Seq, kA / k0A0; sequences stand for … in GGGAAUGGAUCCACAUCUACGAAUUC…UUCACUGCAGACUUGACGAAGCUG
In a few lines: as §1

The next series relates to biotinyl-Trp-oxazolone. The experiment in a line: self-aminoacylation, catalytic enhancement (BWO) (fold over background); higher = more active; k-Seq, kA / k0A0; sequences stand for … in GGGAAUGGAUCCACAUCUACGAAUUC…UUCACUGCAGACUUGACGAAGCUG
The essentials: as §1

Variants at the floor of the assay were thinned out.

For “AUUACCCUGGUCACCGAGUGC [Fam2.1 aminoacylation ribozyme variant]”, the self-aminoacylation in the series with biotinyl-Phe-oxazolone came out at 3.95; in the series on biotinyl-Ile-oxazolone, 1.76; in the series on biotinyl-Met-oxazolone it was 1.43; with biotinyl-Val-oxazolone it was 1.45; in the series with biotinyl-Leu-oxazolone it was 2.61; in the series on biotinyl-Trp-oxazolone it was 2.11.

As for “AUGUCUGCUAAUAGUCGCAAG [Fam3.1 aminoacylation ribozyme variant]”, the self-aminoacylation in the series on biotinyl-Phe-oxazolone was 35.5; in the series with biotinyl-Ile-oxazolone, 1.91; in the series with biotinyl-Met-oxazolone, 2.25; in the series on biotinyl-Val-oxazolone, 1.56; in the series with biotinyl-Leu-oxazolone it was 1.74; in the series on biotinyl-Trp-oxazolone it was 9.53.

With “AAGUUUGCUAGAAGUCGCAAG [Fam3.1 aminoacylation ribozyme variant]”, the self-aminoacylation worked out at 0.798 in the series with biotinyl-Phe-oxazolone; 0.674 in the series on biotinyl-Ile-oxazolone; 0.802 in the series on biotinyl-Met-oxazolone; 0.656 in the series on biotinyl-Val-oxazolone; 0.824 in the series with biotinyl-Leu-oxazolone; 1.51 in the series on biotinyl-Trp-oxazolone.

“AUUCACCUACGUCAUCGAGUG [Fam2.2 aminoacylation ribozyme variant]”: the self-aminoacylation in the series on biotinyl-Phe-oxazolone was determined as 12.5; in the series on biotinyl-Ile-oxazolone, 2.45; in the series with biotinyl-Met-oxazolone it was 4.25; with biotinyl-Val-oxazolone it was 2.71; in the series on biotinyl-Leu-oxazolone, 4.08; in the series with biotinyl-Trp-oxazolone, 3.77.

Regarding “AUUCACCAAGGUCAUCGGCUG [Fam2.2 aminoacylation ribozyme variant]”, the self-aminoacylation came out at 8.8 with biotinyl-Phe-oxazolone; 2.06 with biotinyl-Ile-oxazolone; 2.21 with biotinyl-Met-oxazolone; 1.92 in the series with biotinyl-Val-oxazolone; 2.66 in the series with biotinyl-Leu-oxazolone; 1.78 in the series with biotinyl-Trp-oxazolone.

For “CUACUUCAAACAUUCUGUCUG [Fam1A.1 aminoacylation ribozyme variant]”, the self-aminoacylation with biotinyl-Phe-oxazolone was 0.851; with biotinyl-Ile-oxazolone, 0.822; in the series on biotinyl-Met-oxazolone, 0.7; in the series on biotinyl-Val-oxazolone, 0.79; with biotinyl-Leu-oxazolone, 0.727; in the series on biotinyl-Trp-oxazolone, 0.543.

In the case of “AUUACCCUGGUCAUCGCGUGC [Fam2.1 aminoacylation ribozyme variant]”, the self-aminoacylation came to 16.8 in the series on biotinyl-Phe-oxazolone; 2.81 in the series with biotinyl-Ile-oxazolone; 3.35 in the series with biotinyl-Met-oxazolone; 2.75 in the series on biotinyl-Val-oxazolone; 4.64 in the series with biotinyl-Leu-oxazolone; 4.47 with biotinyl-Trp-oxazolone.

For the sequence “AUGCAUCUAGGUCAUCGGGUG [Fam2.2 aminoacylation ribozyme variant]”, the self-aminoacylation stood at 57 in the series with biotinyl-Phe-oxazolone; 5.83 in the series on biotinyl-Ile-oxazolone; 8.33 with biotinyl-Met-oxazolone; 5.41 with biotinyl-Val-oxazolone; 9.38 with biotinyl-Leu-oxazolone; 9.62 in the series on biotinyl-Trp-oxazolone.

Regarding “CUACUCCAAAAAAUCGGUCUG [Fam1A.1 aminoacylation ribozyme variant]”, the self-aminoacylation with biotinyl-Phe-oxazolone is 1.33; in the series on biotinyl-Ile-oxazolone, 0.894; in the series on biotinyl-Met-oxazolone it was 0.674; in the series with biotinyl-Val-oxazolone, 0.846; with biotinyl-Leu-oxazolone, 0.857; with biotinyl-Trp-oxazolone, 1.06.

Take “AUGACCCUGGUCAUCGCGUGA [Fam2.1 aminoacylation ribozyme variant]”: the self-aminoacylation in the series on biotinyl-Phe-oxazolone turned out to be 126; in the series on biotinyl-Ile-oxazolone, 7.46; in the series with biotinyl-Met-oxazolone it was 16; with biotinyl-Val-oxazolone, 7.53; with biotinyl-Leu-oxazolone, 17.1; in the series on biotinyl-Trp-oxazolone it was 19.7.

Take “UCACACUUCAAGCAAGCGGUC [Fam1B.1 aminoacylation ribozyme variant]”: the self-aminoacylation came to 0.807 with biotinyl-Phe-oxazolone; 0.965 with biotinyl-Ile-oxazolone; 1.02 with biotinyl-Met-oxazolone; 1.06 with biotinyl-Val-oxazolone; 0.991 in the series on biotinyl-Leu-oxazolone; 0.746 with biotinyl-Trp-oxazolone.

With “CCACACUUCAAGCCAUGGGUC [Fam1B.1 aminoacylation ribozyme variant]”, the self-aminoacylation with biotinyl-Phe-oxazolone came to 0.678; with biotinyl-Ile-oxazolone, 1.15; in the series with biotinyl-Met-oxazolone, 1.13; with biotinyl-Val-oxazolone it was 0.952; in the series with biotinyl-Leu-oxazolone, 1.14; with biotinyl-Trp-oxazolone, 0.675.

Consider “AAGUUUGCUAAUAUUCGCAAU [Fam3.1 aminoacylation ribozyme variant]”, for which the self-aminoacylation is 1.32 in the series with biotinyl-Phe-oxazolone; 1.31 in the series on biotinyl-Ile-oxazolone; 1.11 with biotinyl-Met-oxazolone; 1.05 with biotinyl-Val-oxazolone; 1.16 with biotinyl-Leu-oxazolone; 1.33 in the series with biotinyl-Trp-oxazolone.

As to “AUUCAUCGAGGUCAUCGGGUG [Fam2.2 aminoacylation ribozyme variant]”, the self-aminoacylation with biotinyl-Phe-oxazolone stood at 83.3; in the series with biotinyl-Ile-oxazolone, 7.05; in the series with biotinyl-Met-oxazolone, 12; with biotinyl-Val-oxazolone, 6.97; in the series on biotinyl-Leu-oxazolone it was 14.9; in the series on biotinyl-Trp-oxazolone, 10.1.

“AUUACCCUGGCCAUCCAGUGA [Fam2.1 aminoacylation ribozyme variant]”: the self-aminoacylation in the series on biotinyl-Phe-oxazolone is 35.9; with biotinyl-Ile-oxazolone, 4.38; with biotinyl-Met-oxazolone it was 7.34; in the series with biotinyl-Val-oxazolone, 4.01; in the series on biotinyl-Leu-oxazolone, 8.23; in the series with biotinyl-Trp-oxazolone, 7.75.

In the case of “AAGUAUGCUAAUAGUCGCAUG [Fam3.1 aminoacylation ribozyme variant]”, the self-aminoacylation is 1.66 in the series with biotinyl-Phe-oxazolone; 1.34 in the series with biotinyl-Ile-oxazolone; 1.45 in the series on biotinyl-Met-oxazolone; 1.09 with biotinyl-Val-oxazolone; 1.55 in the series on biotinyl-Leu-oxazolone; 1.84 with biotinyl-Trp-oxazolone.

“CUACUUCAAACAAUCGGACUA [Fam1A.1 aminoacylation ribozyme variant]”: the self-aminoacylation in the series on biotinyl-Phe-oxazolone turned out to be 1.13; in the series with biotinyl-Ile-oxazolone it was 0.831; with biotinyl-Met-oxazolone it was 0.579; with biotinyl-Val-oxazolone, 0.744; with biotinyl-Leu-oxazolone, 0.617; with biotinyl-Trp-oxazolone, 0.655.

For the sequence “CUAAUUCAAACAAUCGGUUUG [Fam1A.1 aminoacylation ribozyme variant]”, the self-aminoacylation was 3.96 in the series on biotinyl-Phe-oxazolone; 0.802 with biotinyl-Ile-oxazolone; 0.701 in the series with biotinyl-Met-oxazolone; 0.724 in the series with biotinyl-Val-oxazolone; 0.696 in the series with biotinyl-Leu-oxazolone; 2.78 in the series on biotinyl-Trp-oxazolone.

In the case of “AAGUUUGCAAAUAGCCGCAAG [Fam3.1 aminoacylation ribozyme variant]”, the self-aminoacylation was found to be 0.662 in the series with biotinyl-Phe-oxazolone; 1.05 in the series on biotinyl-Ile-oxazolone; 0.737 in the series with biotinyl-Met-oxazolone; 1.06 in the series with biotinyl-Val-oxazolone; 0.933 with biotinyl-Leu-oxazolone; 1.07 in the series on biotinyl-Trp-oxazolone.

With “AUUACCCUGAUCAUCUAGUGA [Fam2.1 aminoacylation ribozyme variant]”, the self-aminoacylation stood at 56.9 with biotinyl-Phe-oxazolone; 5.67 in the series on biotinyl-Ile-oxazolone; 13.5 with biotinyl-Met-oxazolone; 6.47 in the series with biotinyl-Val-oxazolone; 11.2 with biotinyl-Leu-oxazolone; 15.6 in the series on biotinyl-Trp-oxazolone.

On to “CUACUUCAAACCAUCGAUCUG [Fam1A.1 aminoacylation ribozyme variant]”, for which the self-aminoacylation stood at 0.733 in the series with biotinyl-Phe-oxazolone; 0.685 in the series on biotinyl-Ile-oxazolone; 0.614 in the series with biotinyl-Met-oxazolone; 0.777 in the series with biotinyl-Val-oxazolone; 0.529 with biotinyl-Leu-oxazolone; 0.581 with biotinyl-Trp-oxazolone.

On to “CUACUUCAAACAAGCGGUCUA [Fam1A.1 aminoacylation ribozyme variant]”, for which the self-aminoacylation in the series with biotinyl-Phe-oxazolone amounted to 0.85; with biotinyl-Ile-oxazolone, 0.936; in the series on biotinyl-Met-oxazolone it was 0.838; with biotinyl-Val-oxazolone, 0.707; with biotinyl-Leu-oxazolone, 0.73; in the series on biotinyl-Trp-oxazolone, 0.669.

As to “CCACAGUUCAAGCAAUCGGUA [Fam1B.1 aminoacylation ribozyme variant]”, the self-aminoacylation with biotinyl-Phe-oxazolone came out at 0.787; with biotinyl-Ile-oxazolone, 1.08; in the series on biotinyl-Met-oxazolone, 1.28; in the series with biotinyl-Val-oxazolone, 1.13; in the series with biotinyl-Leu-oxazolone it was 1.01; with biotinyl-Trp-oxazolone, 0.707.
